Laboratory results from patent publication US20240279318A1 (NANJING LEGEND BIOTECH, published 2024).
Numbering of substitutions follows the chain as printed. Each block holds one binder with its values, some of them ahead of it.

Columns and labels:
[1] = target: T1, AFP158/HLA-A*02:01 complex (human); assay: SPR, crude scFv captured, pMHC analyte;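 note: complex injected at several concentrations over the chip, association phase then running buffer for dissociation, KD derived from on- and off-rates computed from both curves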
T1 construct: flowed as analyte in SPR
Protocol: The experiment was carried out as follows. The crude scFv protein were captured onto the sensorchip. Different concentrations (320, 160, 40 nM) of AFP158/HLA-A*02:01 complex flowed over the sensorchip surface, and were allowed to bind the antibody fragment for 100 s followed by injection of the running buffer to allow dissociation of the complex. On-rate (kd) and off-rate (kd) were calculated based on association and dissociation curve, and were used to estimate the equilibrium dissociation constant (KD).
The crude scFv muteins were then subjected to SPR affinity measurement by the method mentioned above.

[2] = target: T2, AFP158/HLA-A*02:01 complex (human); assay: SPR; vs AS170036 VL1VH1;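 note: crude scFv captured on sensor chip, peptide–HLA complex flowed over at several concentrations, KD estimated from association and dissociation kinetic rates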
T2 construct: biotinylated on the BSP by BirA for ELISA and panning; also called biotinylated AFP158/HLA-A*02:01 complex; Bio-AFP158

[3] = target: T2, AFP158/HLA-A*02:01 complex; assay: SPR, crude scFv captured;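 note: Peptide–MHC complex flowed at several concentrations over sensorchip-captured scFv, Kd derived from on- and off-rates obtained from the association and dissociation curves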

Kd [1]: 21 nM
koff [1]: 0.0035 s⁻¹
kon [1]: 170000 M⁻¹ s⁻¹
B1: AS170036 VL1VH1-57M98I108S (scFv)
scFv: QSALTQPRSVSGSPGQSVTISCAGTSSDVGSENYVSWYQQHPGKAPKLMIYQVNKRASGVPDRFSGSKSGNTASLTISGLQAEDEADYYCASYRSSDINIVFGGGTKLTVLGGGGSGGGGSGGGGSEVQLVESGGGLVQPGGSLRLSCAASGFTFSSYAMSWVRQAPGKGLEWVSTINSGTGMPYYADSVKGRFTISRDNSKNTLYLQMNSLRAEDTAVYYCAKNFFDGSWFLSPPAMDYWGQGTLVTVSSHHHHHH
notes: also called 81-AS170036 VL1VH1-57M98I108S

Affinity increase [2]: 1.4 fold
Kd [3]: 160 nM
B2: AS170036 VL1VH1 HG56A (scFv)
scFv: B1 scFv with I98H, G182A, M183S, S234G

Affinity increase [2]: 0.1 fold
Kd [3]: 3700 nM
B3: AS170036 VL1VH1 HF101N (scFv)
scFv: B1 scFv with I98H, M183S, F227N, S234G

Affinity increase [2]: 0.2 fold
Kd [3]: 950 nM
B4: AS170036 VL1VH1 HD102Q (scFv)
scFv: B1 scFv with I98H, M183S, D228Q, S234G

Affinity increase [2]: 0.7 fold
Kd [3]: 350 nM
B5: AS170036 VL1VH1 HG56K (scFv)
scFv: B1 scFv with I98H, G182K, M183S, S234G

Affinity increase [2]: 0.3 fold
Kd [3]: 840 nM
B6: AS170036 VL1VH1 HD102M (scFv)
scFv: B1 scFv with I98H, M183S, D228M, S234G

Affinity increase [2]: 0.1 fold
Kd [3]: 3300 nM
B7: AS170036 VL1VH1 HL107A (scFv)
scFv: B1 scFv with I98H, M183S, L233A, S234G

Affinity increase [2]: 1.4 fold
Kd [3]: 200 nM
B8: AS170036 VL1VH1 HG108Q (scFv)
scFv: B1 scFv with I98H, M183S, S234Q

Affinity increase [2]: 0.5 fold
Kd [3]: 530 nM
B9: AS170036 VL1VH1 HG108T (scFv)
scFv: B1 scFv with I98H, M183S, S234T

Affinity increase [2]: 1.2 fold
Kd [3]: 190 nM
B10: AS170036 VL1VH1 HD102E (scFv)
scFv: B1 scFv with I98H, M183S, D228E, S234G

Affinity increase [2]: 1 fold
Kd [3]: 240 nM
B11: AS170036 VL1VH1 HG56E (scFv)
scFv: B1 scFv with I98H, G182E, M183S, S234G

Affinity increase [2]: 1 fold
Kd [3]: 240 nM
B12: AS170036 VL1VH1 HG56Q (scFv)
scFv: B1 scFv with I98H, G182Q, M183S, S234G

Affinity increase [2]: 0.1 fold
Kd [3]: 1900 nM
B13: AS170036 VL1VH1 HD102I (scFv)
scFv: B1 scFv with I98H, M183S, D228I, S234G

Affinity increase [2]: 0.4 fold
Kd [3]: 660 nM
B14: AS170036 VL1VH1 HG108H (scFv)
scFv: B1 scFv with I98H, M183S, S234H

Affinity increase [2]: 0.1 fold
Kd [3]: 1800 nM
B15: AS170036 VL1VH1 HD102V (scFv)
scFv: B1 scFv with I98H, M183S, D228V, S234G

Affinity increase [2]: 0.1 fold
Kd [3]: 4400 nM
B16: AS170036 VL1VH1 HL107G (scFv)
scFv: B1 scFv with I98H, M183S, L233G, S234G

Affinity increase [2]: 0.3 fold
Kd [3]: 830 nM
B17: AS170036 VL1VH1 HF101H (scFv)
scFv: B1 scFv with I98H, M183S, F227H, S234G

Affinity increase [2]: 0.4 fold
Kd [3]: 630 nM
B18: AS170036 VL1VH1 HF106W (scFv)
scFv: B1 scFv with I98H, M183S, F232W, S234G

Affinity increase [2]: 0.7 fold
Kd [3]: 370 nM
B19: AS170036 VL1VH1 HG108V (scFv)
scFv: B1 scFv with I98H, M183S, S234V

Affinity increase [2]: 0.5 fold
Kd [3]: 530 nM
B20: AS170036 VL1VH1 HL107N (scFv)
scFv: B1 scFv with I98H, M183S, L233N, S234G

Affinity increase [2]: 0.8 fold
Kd [3]: 300 nM
B21: AS170036 VL1VH1 HG56R (scFv)
scFv: B1 scFv with I98H, G182R, M183S, S234G

Affinity increase [2]: 0.1 fold
Kd [3]: 1700 nM
B22: AS170036 VL1VH1 HD102L (scFv)
scFv: B1 scFv with I98H, M183S, D228L, S234G

Affinity increase [2]: 0.2 fold
Kd [3]: 1100 nM
B23: AS170036 VL1VH1 HG56I (scFv)
scFv: B1 scFv with I98H, G182I, M183S, S234G

Affinity increase [2]: 0.1 fold
Kd [3]: 2300 nM
B24: AS170036 VL1VH1 HG108W (scFv)
scFv: B1 scFv with I98H, M183S, S234W

Affinity increase [2]: 0.4 fold
Kd [3]: 630 nM
B25: AS170036 VL1VH1 HG56V (scFv)
scFv: B1 scFv with I98H, G182V, M183S, S234G

Affinity increase [2]: 0.7 fold
Kd [3]: 370 nM
B26: AS170036 VL1VH1 HL107M (scFv)
scFv: B1 scFv with I98H, M183S, L233M, S234G

Affinity increase [2]: 0.8 fold
Kd [3]: 300 nM
B27: AS170036 VL1VH1 HF101W (scFv)
scFv: B1 scFv with I98H, M183S, F227W, S234G

Affinity increase [2]: 0.2 fold
Kd [3]: 1000 nM
B28: AS170036 VL1VH1 HG108I (scFv)
scFv: B1 scFv with I98H, M183S, S234I

Affinity increase [2]: 0.2 fold
Kd [3]: 1100 nM
B29: AS170036 VL1VH1 HG108Y (scFv)
scFv: B1 scFv with I98H, M183S, S234Y

Affinity increase [2]: 0.7 fold
Kd [3]: 340 nM
B30: AS170036 VL1VH1 HG56T (scFv)
scFv: B1 scFv with I98H, G182T, M183S, S234G

Affinity increase [2]: 1.1 fold
Kd [3]: 240 nM
B31: AS170036 VL1VH1 HL107I (scFv)
scFv: B1 scFv with I98H, M183S, L233I, S234G

Affinity increase [2]: 1.5 fold
Kd [3]: 150 nM
B32: AS170036 VL1VH1 HG56H (scFv)
scFv: B1 scFv with I98H, G182H, M183S, S234G

Affinity increase [2]: 0.4 fold
Kd [3]: 520 nM
B33: AS170036 VL1VH1 HD102S (scFv)
scFv: B1 scFv with I98H, M183S, D228S, S234G

Affinity increase [2]: 0.1 fold
Kd [3]: 1600 nM
B34: AS170036 VL1VH1 HG56P (scFv)
scFv: B1 scFv with I98H, G182P, M183S, S234G

Affinity increase [2]: 0.3 fold
Kd [3]: 810 nM
B35: AS170036 VL1VH1 HG108F (scFv)
scFv: B1 scFv with I98H, M183S, S234F

Affinity increase [2]: 0.3 fold
Kd [3]: 880 nM
B36: AS170036 VL1VH1 HD102P (scFv)
scFv: B1 scFv with I98H, M183S, D228P, S234G

Affinity increase [2]: 0.1 fold
Kd [3]: 2500 nM
B37: AS170036 VL1VH1 HD102G (scFv)
scFv: B1 scFv with I98H, M183S, D228G, S234G

Affinity increase [2]: 1.1 fold
Kd [3]: 210 nM
B38: AS170036 VL1VH1 HF101Y (scFv)
scFv: B1 scFv with I98H, M183S, F227Y, S234G

Affinity increase [2]: 0.1 fold
Kd [3]: 2500 nM
B39: AS170036 VL1VH1 HD102N (scFv)
scFv: B1 scFv with I98H, M183S, D228N, S234G

Affinity increase [2]: 0.4 fold
Kd [3]: 590 nM
B40: AS170036 VL1VH1 HD102A (scFv)
scFv: B1 scFv with I98H, M183S, D228A, S234G

Affinity increase [2]: 0.8 fold
Kd [3]: 290 nM
B41: AS170036 VL1VH1 HG56L (scFv)
scFv: B1 scFv with I98H, G182L, M183S, S234G

Affinity increase [2]: 1.7 fold
Kd [3]: 130 nM
B42: AS170036 VL1VH1 HG56W (scFv)
scFv: B1 scFv with I98H, G182W, M183S, S234G

Affinity increase [2]: 1.7 fold
Kd [3]: 130 nM
B43: AS170036 VL1VH1 HG56M (scFv)
scFv: B1 scFv with I98H, G182M, M183S, S234G

Affinity increase [2]: 0.2 fold
Kd [3]: 1500 nM
B44: AS170036 VL1VH1 HG108R (scFv)
scFv: B1 scFv with I98H, M183S, S234R

Affinity increase [2]: 1.4 fold
Kd [3]: 200 nM
B45: AS170036 VL1VH1 HG108L (scFv)
scFv: B1 scFv with I98H, M183S, S234L

Affinity increase [2]: 1.5 fold
Kd [3]: 160 nM
B46: AS170036 VL1VH1 HG56S (scFv)
scFv: B1 scFv with I98H, G182S, M183S, S234G

Affinity increase [2]: 1 fold
Kd [3]: 230 nM
B47: AS170036 VL1VH1 HG56D (scFv)
scFv: B1 scFv with I98H, G182D, M183S, S234G

Affinity increase [2]: 0.1 fold
Kd [3]: 2200 nM
B48: AS170036 VL1VH1 HD102W (scFv)
scFv: B1 scFv with I98H, M183S, D228W, S234G

Affinity increase [2]: 0.1 fold
Kd [3]: 1800 nM
B49: AS170036 VL1VH1 HD102T (scFv)
scFv: B1 scFv with I98H, M183S, D228T, S234G

Affinity increase [2]: 0.2 fold
Kd [3]: 1400 nM
B50: AS170036 VL1VH1 HF101D (scFv)
scFv: B1 scFv with I98H, M183S, F227D, S234G
